The target of assay [1] is T1, BCL6-3C BTB domain (human BCL6 residues 5-129 with C8Q/C67R/C84N) (human, UniProt P41182 5-129). The assay is described as follows: non-denaturing PAGE mobility shift, constant BTB domain, increasing peptide.
Experimental: (§1) The mixture was analyzed by non-denaturing polyacrylamide gel electrophoresis (PAGE) and protein bands were visualized with either Coomassie blue staining or silver staining.
For assay [2], the target named is T1, BCL6-3C BTB domain (human BCL6 residues …). The experiment in a line: native-gel mobility shift assay.
Experimental: as §1
Assay [3] deals with T2, PLZF BTB domain (UniProt Q05516 6-126, limits assumed).
T2 construct: domain: BTB domain; Purified protein; also called BTB^PLZF
T2 sequence (looked up): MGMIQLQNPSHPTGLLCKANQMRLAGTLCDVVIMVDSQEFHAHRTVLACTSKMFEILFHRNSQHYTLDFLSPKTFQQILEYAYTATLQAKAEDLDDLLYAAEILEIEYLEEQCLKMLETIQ
The assay is described as follows: SPR. Background: In SPR one partner is held on a chip, and binding of the other changes the refractive index at the surface.
Experimental: (§2) SPR: Biotinylated corepressor peptides were coupled to streptavidin-coated sensor chips to a density of 800 response units (Biacore 2000). BCL6 or PLZF BTB protein was serially diluted in running buffer (10 mM Hepes, pH 7.4, 150 mM NaCl, 3 mM EDTA, 0.005% v/v surfactant P20) and injected at a flow rate of 5 μL/min.

The target of assay [4] is T2, PLZF BTB domain. The assay is described as follows: ITC. A general note: ITC needs no label: the signal is the heat of the interaction.
Experimental: All components were in 150 mM NaCl, 20 mM Hepes pH 7.7, 1 mM TCEP. […] To correct for dilution and mixing effects, a series of control injections was carried out, in which the heat of dilution was measured in blank titrations by injecting the peptide into the buffer.
The target in the next assay is BCL6-3C BTB domain H116A (human, UniProt P41182 5-129). The experiment in a line: co-purification.
In a further assay the target is BCL6-3C BTB domain N21K (human, UniProt P41182 5-129). The experiment in a line: co-purification.
Assay [5] concerns the target T1, BCL6-3C BTB domain (human BCL6 residues …). The experiment in a line: co-purification.
Experimental: (§3) In vitro binding assays. Co-purification: Equimolar amounts of His-tagged thioredoxin-corepressor fusion protein and BCL6 BTB or PLZF BTB domain were combined, incubated for at least two hours, and loaded onto a Ni-NTA spin column (Qiagen). The column was washed three times with 600 μl of wash buffer (200 mM NaCl, 20 mM Tris-HCl pH 8.0, 10 mM imidazole), and bound protein was released with 400 μl of elution buffer (200 mM NaCl, 20 mM Tris-HCl pH 8.0, 300 mM imidazole). Samples were analyzed on 10-20% SDS-PAGE gels and stained with Coomassie blue.
The target is the same in assay [6]. The assay is described as follows: Ni-NTA co-purification with the His-tagged thioredoxin fusion, SDS-PAGE, stained gel.
Assay [7] has the same target. The assay is described as follows: SPR, biotinylated peptide on streptavidin chip, BCL6-3C BTB domain injected.
Experimental: “N.b.” indicates no detectable binding.
as §2

No end group written: not given here.

Experimental for BCL6-3C BTB domain H116A: as §3
Experimental for BCL6-3C BTB domain N21K: as §3

B1: BCoR 498-514 peptide (BCoR BBD) (peptide)
peptide: RSEIISTAPSSWVVPGP
notes: Purified peptide used for co-crystallisation; also called BCoR-BBD peptide; BCoR peptide
As to B1, in assay [1], the binding result is given as “binds”.
With RSEIISTAPWSSVVPGP [BCoR peptide with the S507W/W509S double mutation], the binding result in assay [2] is “no binding”.

B2: SMRT^1417-1441 peptide, biotinylated, immobilised for SPR (peptide, UniProt Q9Y618 1417-1441, looked up)
peptide: TVKEAGRSIHEIPREELRHTPELPL
modifications: also: biotinylated lysine in N-terminal tag residues (not given here)
notes: not shown: N-terminal residues left after TEV cleavage (BirA biotinylation motif, thrombin site)
As to B2, the binding result with PLZF BTB domain [3] is “no binding”.

B3: SMRT^1414-1430 peptide (SMRT-BBD), no additional N-terminal residues (peptide)
peptide: LVATVKEAGRSIHEIPR
notes: Made by thrombin digestion of the fusion protein
Turning to B3, in the assay with PLZF BTB domain [4], the binding result is listed as “no binding”.

B4: hexahistidine tagged fusion protein containing BCoR residues 317 to 547 (other, UniProt Q6W2J9 317-547, looked up)
chain: SAKAVTSGLPGDTALLLPPSPRPSPRVHLPTQPAADTYSEFHKHYARISTSPSVALSKPYMTVSSEFPAARLSNGKYPKAPEGGEGAQPVPGHARKTAVQDRKDGSSPPLLEKQTVTKDVTDKPLDLSSKVVDVDASKADHMKKMAPTVLVHSRAGSGLVLSGSEIPKETLSPPGNGCAIYRSEIISTAPSSWVVPGPSPNEENNGKSMSLKNKALDWAIPQQRSSSCPRM
notes: not shown: hexahistidine tagged fusion partner
With B4, the binding result in the assay with BCL6-3C BTB domain H116A and with BCL6-3C BTB domain N21K was “no binding” each time.

B5: hexahistidine tagged fusion protein containing BCoR residues 542 to 753 (other, UniProt Q6W2J9 542-753, looked up)
chain: SSCPRMGGTDAVITNVSGSVSSAGRPASASPAPNANADGTKTSRSSVETTPSVIQHVGQPPATPAKHSSSTSSKGAKASNPEPSFKANENGLPPSSIFLSPNEAFRSPPIPYPRSYLPYPAPEGIAVSPLSLHGKGPVYPHPVLLPNGSLFPGHLAPKPGLPYGLPTGRPEFVTYQDALGLGMVHPMLIPHTPIEITKEEKPERRSRSHERA
notes: as for B4
As to B5, in [5], the binding result is listed as “no binding”.
As for RSEIISTAPASAVAPGP [BCoR peptide with the S507A/W509A/V511A triple mutation], in assay [2], the binding result is “no binding”.

B6: hexahistidine tagged fusion protein containing BCoR residues 112 to 342 (other, UniProt Q6W2J9 112-342, looked up)
chain: LGFSSERNPEMQFKPNTPETVEASAVSGKPPNGFSAIYKTPPGIQKSAVATAEALGLDRPASDKQSPLNINGASYLRLPWVNPYMEGATPAIYPFLDSPNKYSLNMYKALLPQQSYSLAQPLYSPVCTNGERFLYLPPPHYVGPHIPSSLASPMRLSTPSASPAIPPLVHCADKSLPWKMGVSPGNPVDSHAYPHIQNSKQPRVPSAKAVTSGLPGDTALLLPPSPRPSPR
notes: as for B4
Consider B6, for which, in [5], the binding result is “no binding”.

B7: SMRT-BBD with residues 1427-1430 replaced by alanines (EIPR->AAAA) (peptide)
peptide: LVATVKEAGRSIHAAAA
notes: also called AAAA mutant; not shown: N-terminal fusion or tag residues depend on the assay (His-Trx fusion in co-purification, biotinylated tag remnant in SP)
As to B7, the binding result in assay [6] was “no binding”.

B8: SMRT-BBD with the SI to IS substitution at residues 1424-1425 (peptide)
peptide: LVATVKEAGRISHEIPR
notes: The text calls it SMRT-BBD; also called IS mutant; not shown: N-terminal fusion or tag residues depend on the assay (His-Trx fusion in co-purification, biotinylated tag remnant in SP)
With B8, the binding result in assay [6] is given as “no binding”.

B9: SMRT^1414-1441 peptide (fragment d), biotinylated, immobilised for SPR (peptide, UniProt Q9Y618 1414-1441, looked up)
peptide: LVATVKEAGRSIHEIPREELRHTPELPL
modifications: also: biotinylated lysine in N-terminal tag residues (not given here)
notes: as for B2
Take B9: the binding result with PLZF BTB domain [3] is “no binding”. Moreover, in [7], binding was characterised by a dissociation constant (Kd) of 15.8 nM.

B10: SMRT^1414-1430 peptide, biotinylated, immobilised for SPR (peptide)
peptide: LVATVKEAGRSIHEIPR
modifications: also: biotinylated lysine 8 residues N-terminal to the peptide, not in the given chain
notes: SPR form of the minimal fragment; not shown: N-terminal residues left after TEV cleavage (BirA biotinylation motif, thrombin site)
As for B10, in the assay with PLZF BTB domain [3], the binding result was “no binding”.

For the origin of these results see patent publication US20090018083A1 (ALBERT EINSTEIN SCHOOL OF MEDICINE OF YESHIVA UNIVERSITY, published 2009).
